Several values for one entry are separate records, joined by “and”; a condition that tells them apart may be missing. Equal values may be shown once.

Broadly, the Kd is the concentration at which binding is half-saturated.

For this assay, the target named is T1, recombinant human mitochondrial fission protein 1 (Fis1) (human), Q9Y3D6.
T1 chain: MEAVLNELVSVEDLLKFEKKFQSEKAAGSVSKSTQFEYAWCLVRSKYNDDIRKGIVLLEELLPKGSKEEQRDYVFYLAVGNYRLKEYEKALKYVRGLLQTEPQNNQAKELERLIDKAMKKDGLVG

Take SHKHDPLPYPHFLL (modifications not checked) [pep213]: the Kd was 7 µM and 3.3 µM.

The values above are taken from US20240010683A1, “Peptide Inhibitors of Human Mitochondrial Fission Protein 1 and Methods of Use” (The Medical College of Wisconsin, Inc., priority 2020, published 2024).
